# How the values were obtained:
# [1] = test system: unidentified cell-surface target of sgc8 on CCRF-CEM cells; details: 5'-diacyl lipid-(PEG)4, membrane anchored; CITED; value for sgc8 aptamer; CEM cell aggregation with lipo-sgc8-TMR shown here (FIG. 13A); cited from earlier work
# [2] = molecular target: T1, IGHM (immunoglobulin heavy mu chain), on Ramos cells (UniProt P01871 P01871:1-474); test: flow; Ramos cells; based on lipid unit concentration; 0.116 nM if 1000 copies per micelle; details: tags: endogenous on Ramos cells (ATCC CRL-1596); chain copies: 2; label: 3'-FAM
# [3] = molecular target: T1, IGHM (immunoglobulin heavy mu chain), …; test: flow; free TDO5 on Ramos cells; compared with micelle; elsewhere quoted as 74 nM (p179, CITED); details: tags: endogenous on Ramos cells (ATCC CRL-1596); chain copies: 2; label: FITC
# T1 sequence (P01871 whole entry, one chain of several): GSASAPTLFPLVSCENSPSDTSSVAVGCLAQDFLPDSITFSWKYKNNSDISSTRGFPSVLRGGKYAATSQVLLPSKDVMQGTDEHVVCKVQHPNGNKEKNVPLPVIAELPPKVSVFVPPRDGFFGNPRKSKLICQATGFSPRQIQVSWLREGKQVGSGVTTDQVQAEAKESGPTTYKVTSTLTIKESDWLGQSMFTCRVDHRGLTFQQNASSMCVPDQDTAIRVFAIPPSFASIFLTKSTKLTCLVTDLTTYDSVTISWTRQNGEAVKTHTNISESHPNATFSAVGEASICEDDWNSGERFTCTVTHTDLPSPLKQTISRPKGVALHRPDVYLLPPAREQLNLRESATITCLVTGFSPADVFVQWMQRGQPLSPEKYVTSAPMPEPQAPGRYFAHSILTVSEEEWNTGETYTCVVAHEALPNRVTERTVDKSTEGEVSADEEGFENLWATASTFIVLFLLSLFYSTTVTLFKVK
molecule,measurement,setting,value
TTTTTTTATCTAACTGCTGCGCCGCCGGGAAAATACTGTACGGTTAGA [Lipo-sgc8-TMR],Kd,[1],0.0008 µM
"AACACCGGGAGGATAGTTCGGTGGCTGTTCAGGGTCTCCTCCCGGTGA (ssDNA, 5'-diacyl lipid tail-(CH2CH2O)24; self-assembled micelle) [TDO5-micelle (lipid-TDO5)]",Kd,[2],0.116 µM
AACACCGGGAGGATAGTTCGGTGGCTGTTCAGGGTCTCCTCCCGGTGA (ssDNA) [TDO5],Kd,[3],0.088 µM

# — patent publication US20120087949, “OLIGONUCLEOTIDE MICELLES” (University of Florida Research Foundation, Inc., published 2012)
